Experiments:
[1] = target: soluble KIR3DL1*001-Fc (human) (UniProt P43629); assay: SPR (BIACORE T-100)
[2] = target: soluble KIR3DL1*002-Fc (human) (UniProt P43629); assay: SPR (BIACORE T-100)
[3] = target: soluble KIR3DL1*033-Fc (human) (UniProt P43629); assay: SPR (BIACORE T-100)
[4] = target: soluble KIR3DL1*002-Fc (human) (UniProt P43629); assay: SPR (BIACORE T-100), kinetics

Chain of soluble KIR3DL1*002-Fc (human) (P43629 other isoform, or with tags, fused parts or gaps): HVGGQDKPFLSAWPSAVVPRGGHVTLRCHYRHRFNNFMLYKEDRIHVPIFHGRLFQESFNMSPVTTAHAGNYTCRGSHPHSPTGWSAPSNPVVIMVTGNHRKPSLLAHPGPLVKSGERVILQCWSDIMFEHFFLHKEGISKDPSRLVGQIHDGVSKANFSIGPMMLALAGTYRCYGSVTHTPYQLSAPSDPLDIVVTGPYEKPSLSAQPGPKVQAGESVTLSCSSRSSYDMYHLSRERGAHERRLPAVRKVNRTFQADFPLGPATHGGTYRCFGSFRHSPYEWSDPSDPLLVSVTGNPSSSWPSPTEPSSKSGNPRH
Chain of soluble KIR3DL1*033-Fc (human) (P43629 other isoform, or with tags, fused parts or gaps): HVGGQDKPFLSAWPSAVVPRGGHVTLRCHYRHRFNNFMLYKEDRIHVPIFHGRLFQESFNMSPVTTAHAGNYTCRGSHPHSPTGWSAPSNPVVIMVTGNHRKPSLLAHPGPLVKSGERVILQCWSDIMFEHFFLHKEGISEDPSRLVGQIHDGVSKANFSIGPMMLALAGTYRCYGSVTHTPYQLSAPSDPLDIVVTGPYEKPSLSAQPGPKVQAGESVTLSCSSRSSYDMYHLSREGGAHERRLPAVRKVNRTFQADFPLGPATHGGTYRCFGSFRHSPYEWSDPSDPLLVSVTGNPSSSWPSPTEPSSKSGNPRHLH

Kd [1]: 14.1 nM
Kd [2]: 30.6 nM
Kd [3]: 8.6 nM
Kd [4]: 30.6 nM
koff [4]: 0.000992 s⁻¹
kon [4]: 32400 M⁻¹ s⁻¹
Substance: DX9 (PHB4385) (antibody)

Reference: US20200031927A1
